Test [1] addresses Fc receptors on primary human blood cells: granulocytes (CD66+). As to the kind of experiment: flow cytometry on human granulocytes (CD66+). Background: A flow cytometer gives signals particle by particle.
Test [2] concerns the target Fc receptors on primary human blood cells: NK cells (CD16+CD56+). In words: flow cytometry on human blood cells (Example 7).
In test [3] the target is Fc receptors on primary human blood cells: granulocytes (CD66+). In words: flow cytometry on human blood cells (Example 7).

Bounds are passed on as bounds.

For “control antibody having an Fc glycosylation pattern similar to that of Fuc- cetugex (including a similarly low fucosylation)”, in test [1], the percent of granulocytes bound was found to be 20%.

In turn, “Fuc+ cetuximab (high fucose anti-EGFR antibody cetuximab produced in mouse myeloma cell line SP2/0)” showed a percent of NK cells bound in test [2] of under 5%. In test [3], this substance gave a percent of granulocytes bound of under 5%.

On to “Fuc- cetuximab (low fucosylation variant of cetuximab; reduced fucose anti-EGFR antibody according to the invention)”, for which the percent of granulocytes bound in test [1] is 100%.
